From PMC10427625, “Structural basis for negative regulation of the Escherichia coli maltose system” (Nature Communications, 2023)

B1: MalT-R9S, N-terminally His-tagged (natural protein, Escherichia coli, UniProt P06993 1-901, looked up)
chain: MLIPSKLSSPVRLDHTVVRERLLAKLSGANNFRLALITSPAGYGKTTLISQWAAGKNDIGWYSLDEGDNQQERFASYLIAAVQQATNGHCAICETMAQKRQYASLTSLFAQLFIELAEWHSPLYLVIDDYHLITNPVIHESMRFFIRHQPENLTLVVLSRNLPQLGIANLRVRDQLLEIGSQQLAFTHQEAKQFFDCRLSSPIEAAESSRICDDVSGWATALQLIALSARQNTHSAHKSARRLAGINASHLSDYLVDEVLDNVDLATRHFLLKSAILRSMNDALITRVTGEENGQMRLEEIERQGLFLQRMDDTGEWFCYHPLFGNFLRQRCQWELAAELPEIHRAAAESWMAQGFPSEAIHHALAAGDALMLRDILLNHAWSLFNHSELSLLEESLKALPWDSLLENPQLVLLQAWLMQSQHRYGEVNTLLARAEHEIKDIREDTMHAEFNALRAQVAINDGNPDEAERLAKLALEELPPGWFYSRIVATSVLGEVLHCKGELTRSLALMQQTEQMARQHDVWHYALWSLIQQSEILFAQGFLQTAWETQEKAFQLINEQHLEQLPMHEFLVRIRAQLLWAWARLDEAEASARSGIEVLSSYQPQQQLQCLAMLIQCSLARGDLDNARSQLNRLENLLGNGKYHSDWISNANKVRVIYWQMTGDKAAAANWLRHTAKPEFANNHFLQGQWRNIARAQILLGEFEPAEIVLEELNENARSLRLMSDLNRNLLLLNQLYWQAGRKSDAQRVLLDALKLANRTGFISHFVIEGEAMAQQLRQLIQLNTLPELEQHRAQRILREINQHHRHKFAHFDENFVERLLNHPEVPELIRTSPLTQREWQVLGLIYSGYSNEQIAGELEVAATTIKTHIRNLYQKLGVAHRQDAVQHAQQLLKMMGYGV
notes: MalT of Escherichia coli, variant of plasmid pOM206 made by site-directed mutagenesis; source: E. coli BL21 (DE3) ΔmalT220, purified (Ni Sepharose, gel filtration)

Experiments:
ADP = experiment: luciferase assay of protein-bound nucleotide; parameters: unit not given here; conditions: parent: est. 98; read off a plot
ATP = experiment: luciferase assay of protein-bound nucleotide; parameters: unit not given here; conditions: parent: est. 0; read off a plot
[1] = biological target: the molecule itself; experiment: SEC; Superose 6 Increase 10/300 GL, 4 °C; MalT pre-incubated at 20 °C for 20 min in buffer I; run in buffer E with 1 mM maltotriose and 0.4 mM ATP; self-association of MalT

Row | Molecule | other: Nucleotide content (ADP) | other: Nucleotide content (ATP) | binding result [1]
1 | MalT (wild type), N-terminally His-tagged (from UniProt P06993) K6A | 13 | 58 | –
2 | MalT (wild type), N-terminally His-tagged (from UniProt P06993) R19A | 28 | 7.5 | –
3 | B1 | – | – | binds
